Consider 2 sequences from patent publication US20220313780A1, “METHODS AND COMPOSITIONS FOR TREATING INFLAMMATORY CONDITIONS” (THE SCRIPPS RESEARCH INSTITUTE, priority 2019, published 2022).

For one assay, the target named is T1, PAR3 (Homo sapiens, UniProt O00254).
T1 construct: mouse monoclonal antibody to PAR3, clone 19b (clonel9b; 25 μg/mL) for 30 minutes; endogenous in cells; host or cells: THP1-null (wildtype) cells, PMA-differentiated
T1 sequence (O00254 22-374): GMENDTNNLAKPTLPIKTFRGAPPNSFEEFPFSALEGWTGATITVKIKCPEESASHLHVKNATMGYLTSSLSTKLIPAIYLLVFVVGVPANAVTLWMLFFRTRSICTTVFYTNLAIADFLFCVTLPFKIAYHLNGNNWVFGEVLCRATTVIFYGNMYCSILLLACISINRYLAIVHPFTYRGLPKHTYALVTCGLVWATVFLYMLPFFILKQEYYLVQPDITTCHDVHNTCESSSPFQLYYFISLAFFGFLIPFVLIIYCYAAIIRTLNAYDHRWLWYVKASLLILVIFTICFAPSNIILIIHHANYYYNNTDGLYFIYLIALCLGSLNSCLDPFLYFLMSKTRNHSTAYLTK
As to the kind of experiment: Caspase 1 activity assay in THP1 cells after blocking PAR3 with monoclonal antibody clone 19b. The assay is classed as cell-based. Conditions: clone 19b 25 μg/mL for 30 minutes before APC 4 μg/mL, TR47 50 μM or P3R 50 μM. On the procedure:
(§1) THP1 or (A) NLRP3 deficient cells (THP1-defNLRP3) cells were plated at a final concentration of 1×10^6/mL in 96 well plates and incubated with PMA (0.5 μM) for 3 hours 37° C. in supplemented RPMI. Media was subsequently changed every 24 hours for 3 days. In brief, selected wells were treated with APC (4 μg/mL), TR47 (50 μM) or P3R (50 μM) for 1 hour, washed with DPBS, and incubated with LPS (1 μg/mL) for 3 hours at 37° C. in serum-free RPMI. After a DPBS wash, cells were incubated with ATP (5 mM) in the presence or absence of 10 μM YVAD (caspase 1 inhibitor) or 2.5 μM ZVAD (pan-caspase inhibitor) for 45 minutes at 37° C. […] Again, cells were washed with DPBS and incubated with ATP (5 mM) in the presence or absence of 10 μM YVAD (caspase 1 inhibitor) or 2.5 μM ZVAD (pan-caspase inhibitor) for 45 minutes prior to performing the caspase 1 activity following manufacturer's directions measuring luminescence. […] After a DPBS wash, cells were incubated with ATP (5 mM) in the presence or absence of 10 μM YVAD (caspase 1 inhibitor) or 2.5 μM ZVAD (pan-caspase inhibitor) for 45 minutes at 37° C., prior to performing the caspase 1 activity assay following manufacturer's directions measuring luminescence (relative luminescent units, RLU). […]

For another assay, the target named is T2, EPCR (Homo sapiens, UniProt Q9UNN8).
T2 construct: endogenous in cells; host or cells: THP1-null (wildtype) cells, PMA-differentiated
T2 sequence (Q9UNN8 18-238): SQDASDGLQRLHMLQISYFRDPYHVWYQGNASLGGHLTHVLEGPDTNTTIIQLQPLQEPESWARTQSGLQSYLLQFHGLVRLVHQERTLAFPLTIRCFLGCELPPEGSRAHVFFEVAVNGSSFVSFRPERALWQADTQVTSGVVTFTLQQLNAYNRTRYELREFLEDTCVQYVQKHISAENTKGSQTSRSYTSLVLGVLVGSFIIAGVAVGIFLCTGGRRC
As to the kind of experiment: Caspase 1 activity assay in THP1 cells after blocking EPCR with antibody RCR-252. The assay is classed as cell-based. Conditions: RCR-252 50 μg/mL before APC 4 μg/mL, TR47 50 μM or P3R 50 μM. On the procedure: as §1

Consider “GAPPNSFEEFPFSALEGWTGATIT [P3R, PAR3-derived 24-mer peptide]”, for which, in the assay with PAR3, the “effect of blocking PAR3 on anti-inflammatory activity (caspase 1)” value was “very significantly reduced the anti-inflammatory activity”. The “effect of blocking EPCR on inhibition of caspase 1 activity” value with EPCR is on record as “though trending, did not reach significance”.
On to “NPNDKYEPFWEDEEKNESGL [TR47, PAR1-derived 20 amino acid peptide]”, for which the “effect of blocking PAR3 on anti-inflammatory activity (caspase 1)” value in the assay with PAR3 is reported as “less significantly reduced the activity”. Besides, in the assay with EPCR, the “effect of blocking EPCR on inhibition of caspase 1 activity” value is recorded as “significant loss in their inhibition of caspase 1 activity”.
